Test results: the supplement of paper PMC9170038

Tested on: MS2 coat protein
Assay: apparent KD of MS2 coat protein; designed switch direction (-1 OFF switch, 1 ON switch): 1; higher = weaker reporter binding
In short: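 SNAP-549-labelled MS2 coat protein was titrated, doubling from 0.7 or 1.5 nM to 3 µM, over designed RNA switches transcribed on Illumina chips by stalled E. coli RNA polymerase. Runs were done without input, with 200 uM small-molecule ligand, or with an oligonucleotide input. Apparent KD is the per-design median over clusters of curve-fitted normalised fluorescence.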

[1] = input ligand: microRNA oligo, concentration not stated
[2] = Eterna round: R95, input ligand: FMN 200 uM
[3] = Eterna round: R95, input ligand: microRNA oligo, concentration not stated
[4] = Eterna round: R95, input ligand: none

Sequence | apparent KD of MS2 coat protein (input ligand: FMN 200 uM) | apparent KD of MS2 coat protein [1] | apparent KD of MS2 coat protein (input ligand: none) | apparent KD of MS2 coat protein [2] | apparent KD of MS2 coat protein [3] | apparent KD of MS2 coat protein [4]
UUAAUAAUGUUAGGAUAUACAUGAGGAAUCCUCGUAGAAGGAACAUGACAUGAGGAUCACCCAUGUAGCGCUCCGAAGAGCGCA [Mat - Same State NG 1 - JL mod - D46] (Eterna round: R96, puzzle: Same State NG 1) | 254 nM | 115 nM | 161 nM |  |  | 
AGUCCAGCCUGAGCUGGACAAAAGCAUGUACAUGAGGAUCACCCAUGUCAUGUACAAGUUUUUUGCUCGUCUUAAUA [Zipper 49 - 12] (puzzle: Sensor for hsa-mir-208a) |  |  |  | 46.9 nM | 11.1 nM | 53.1 nM
GGUGGGUUACUACCAACACAUGAGGAUCACCCAUGUUUUGGGAAGGAUAUGGUACCUAUUUGGUACCAGAAGGUCCAGUUAGUG [salish99_SSNG3_r04_703] (Eterna round: R96, puzzle: Same State NG 3) | 61.9 nM | 37.7 nM | 40 nM |  |  | 
UGCCUGAGUCGAGGAUAUUAUGGAUCAAUUAAUACAUGAGGAUCACCCAUGUAAUUAAUUUAACAUGAGAAGGCGACUCAGGCA [SSNG2/10-A2] (Eterna round: R96, puzzle: Same State NG 2) | 7.88 nM | 4.69 nM | 8.81 nM |  |  | 
GGGUGUGGAAGGAAAGAUAGGAAAAGGAAACAUGAGGAUCACCCAUGUGAAGGAAGAAAGGGAGCUCGUCUUAUAAG [JR_SHM208A_Sub001] (puzzle: Sensor for hsa-mir-208a) |  |  |  | 27.4 nM | 22.8 nM | 23.5 nM
GCAUUACAUGAGGAUCACCCAUGUCUCUAAAGUCGAGGAUAUGGGCAGGUUAUAUCCGAACCAGAAGGCGAAUUGC [SS1 Teenbexe 10] (puzzle: Same State 1) |  |  |  | 138 nM | 244 nM | 198 nM
ACGUGGAUAUCACAGGAUAUACUCAUAACUACAUGAGGAUCACCCAUGUAGCGGUAUUCCGAUGCGUAGAAGGGUGAUGGACCAC [Same State 2 - Mod of Artece v.2] (puzzle: Same State 2) |  |  |  | 13.9 nM | 14.9 nM | 17.4 nM
GCUCGAAUCAGAACCAACAUGAGGAUCACCCAUGUGUGUUGGUAGGAUAUCGUUUCUAAGAGAAACGAGAAGGGCCGAACGAGC [SameState NG3 #6] (Eterna round: R96, puzzle: Same State NG 3) | 41 nM | 52.3 nM | 75.7 nM |  |  | 
UGGCUCAGACUAGGAUAUACGUGGUCACAUGAGGAUCACCCAUGUCUCGAGCUUCGGCUCGAGGCGUAGAAGGAGUCUGAGCCA [SSNG2/6-D2] (Eterna round: R96, puzzle: Same State NG 2) | 145 nM | 199 nM | 184 nM |  |  | 
GUGGCGGGUUGAGGAUAUUGGUUGCCGCUGUUUUACAUGAGGAUCACCCAUGUGGGUUGCGGUUUCGAGAAGGGCGGUUGCUGG [salish99_SSNG2_r04_056] (Eterna round: R96, puzzle: Same State NG 2) | 18.2 nM | 14.6 nM | 24 nM |  |  | 
GUGGUCAGACAUGAGGAUCACCCAUGUGGAAUAAAUAACAACUAGGAUAUAUAAUAUAGGAUAUAAUAGAAGGAGUGAUUGGUG (Eterna round: R96, puzzle: Same State NG 3) |  | 121 nM |  |  |  | 
AGACACAUGAGGAUCACCCAUGUCAUGAGCUUAGCUCGGGCACAGGAUAUCCGGUCCUAGAGACCGGAGAAGGGUGGCCGAAAA [Zara MOD] (Eterna round: R96, puzzle: Same State NG 3) | 396 nM | 323 nM | 670 nM |  |  | 
CUGAGCAAUCGAGGAUAUCACGUCGAAUAGACGUGAGAAGGCGAUCAUAACAUGAGGAUCACCCAUGUAUUACAUGAAGCUCAG [SSNG1/4-A1] (Eterna round: R96, puzzle: Same State NG 1) | 11.7 nM | 12.8 nM | 16.2 nM |  |  | 
UCUUGGUUUUUGCUCGUUUUUUGUGUUGAACAUGAGGAUCACCCAUGUAUUGUACGGUCCAGUUUGAUAGUGGUCCG [JMF 33] (puzzle: Sensor for hsa-mir-208a) |  |  |  | 25.6 nM | 13.6 nM | 29.9 nM
GUGCUCGUGUAAGGAUAUGCUUCCGUUUCGGCUGCAGAAGGUACUAUAAUACAUGAGGAUCACCCAUGUCUCUUUUGUUUGGUG [salish99_SSNG1_r04_908] (Eterna round: R96, puzzle: Same State NG 1) | 86.1 nM | 58.6 nM | 76.5 nM |  |  | 
UCAAGCGAGAGGCUCGUCUUAUGCAAGGAACAUGAGGAUCACCCAUGUGAGGGACGAUUGAGUUAGAUGGAAUGGAG [JR_SHM208A_Sub032] (puzzle: Sensor for hsa-mir-208a) |  |  |  | 29.9 nM | 136 nM | 33.5 nM
AACAAUCUAUCUGAGGAUAUCAUGAUAAUAACAUGAGGAUCACCCAUGUGCAGGAAAACUGCAUAUGAGAAGGCAGAUAGAUUGG [Mat - Same State 2 - Mod - D20] (puzzle: Same State 2) |  |  |  | 100 nM | 29.4 nM | 26.5 nM
CUGUGUUGCGGGCAGGAUAUGUAUUGGAGUACAUGAGGAUCACCCAUGUGCGGGUGUUUCACCCGACAGAAGGGCCAAUCGCGAC [JL-ss2-3.22 ViennaUCT mod] (puzzle: Same State 2) |  |  |  |  | 76.7 nM | 
UCUUGGUUUUUGCUCGUUUUUUGUGUUGAACAUGAGGAUCACCCAUGUAUUGUACGGUCCGAUUUAGUAGUGGUCCG [JMF 18] (puzzle: Sensor for hsa-mir-208a) |  |  |  | 26 nM | 14.5 nM | 26.9 nM
AGUCCAGCAUAAGCUGGACAAAAGCAUGUACAUGAGGAUCACCCAUGUUCAUGUACAAGCUUUUUGCUCGUCAAAAG [Mat - hsa-mir-208a - Mod of JL - 71] (puzzle: Sensor for hsa-mir-208a) |  |  |  | 215 nM | 22.6 nM | 297 nM
GUAGCAUGCAGCGAGGAUAUUCAUAUUAAAACAUGAGGAUCACCCAUGUAGGCCAAAAGGCCUUGGGAGAAGGCGCACAUGCUAC [Xeonanis - 20] (Eterna round: R96, puzzle: Same State 2) | 37.8 nM | 360 nM | 536 nM |  |  | 
GGAGCCGGCACUGAGGAUAUUCAUAGUGUAACAUGAGGAUCACCCAUGUAGGCCCUGAGGCCUUGGGAGAAGGCAGGUCGGCUCG [JL-ss2-3.04 ViennaUCT mod] (puzzle: Same State 2) |  |  |  | 31.8 nM | 239 nM | 445 nM
UAGCACUGUCGAGAGGAUAUGCGGUGAUGGACAUGAGGAUCACCCAUGUUAGCGACAGCAUCACGGCAGAAGGCUCUACUGCUGC [Soteed Omei mod 35] (puzzle: Same State 2) |  |  |  | 11.7 nM | 15.6 nM | 13.7 nM
AGAGCCGGCACCGAGGAUAUUCAUAUUAAAACAUGAGGAUCACCCAUGUAGGCCAGAAGGCCUUGGGAGAAGGCGGAUCGGCUCG [Xeonanis - 7] (Eterna round: R96, puzzle: Same State 2) | 32.5 nM | 335 nM | 559 nM |  |  | 
GCUCGUACGAUGACCGACAUGAGGAUCACCCAUGUGUGUCGGUAGGAUAUCUAUAUUAAGGAUUUAGAGAAGGGCCCAACGAGC [SameState NG3 #19] (Eterna round: R96, puzzle: Same State NG 3) | 63.3 nM | 66.5 nM | 82 nM |  |  | 
UGAACCUUCACAGGAUAUCAUGCGAAAAUUGCGUGAGAAGGGUGAAUAUGGUGUUCAUAGUUGCACAUGAGGAUCACCCAUGUA [SameState NG1 #53] (Eterna round: R96, puzzle: Same State NG 1) |  | 92.3 nM |  |  |  | 
UAUUAAGCUGUAGGAUAUCUAGGAUAUGGACGAGGAUCACCCGAGCAGCAUCAGCGCACCAGAGGAGAGAAGGACGCUUUGGAA [pwkr ssNG2 2F5 2FMN.3] (Eterna round: R96, puzzle: Same State NG 2) | 463 nM | 882 nM | 916 nM |  |  | 
GUUAGGAAUCUAGCAAACAUGAGGAUCACCCAUGUUAGUGGGAAGGAUAUGGUACAGAAACUGUACCAGAAGGUCUUAUUAAUU [Omei SS(NG) 3 AV2] (Eterna round: R96, puzzle: Same State NG 3) | 58.3 nM | 39.1 nM | 55.7 nM |  |  | 
